The test addresses 6×His human TRIM21 PRYSPRY labelled with Alexa Fluor 488 (human) (UniProt P19474). Description: fluorescence anisotropy; 5 nM Alexa Fluor 488-labelled human TRIM21 PRYSPRY, antibody titrated. A general note: Polarisation of emitted light reports the rotation of a fluorescent probe.

pKd: −log10 of the molar value.

Sequence of UniProt P19474 (P19474 287-465 limits assumed): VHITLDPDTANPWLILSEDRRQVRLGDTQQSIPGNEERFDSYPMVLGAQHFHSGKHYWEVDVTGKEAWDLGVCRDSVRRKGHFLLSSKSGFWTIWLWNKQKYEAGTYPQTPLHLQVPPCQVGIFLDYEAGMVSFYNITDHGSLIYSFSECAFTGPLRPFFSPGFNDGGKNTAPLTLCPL

In general, pKd refers to the Kd on a negative log10 scale, so that one unit is a factor of ten. In turn, “9C12 N297A T256P (mouse-human chimeric, human IgG1 Fc) (antibody)” showed a negative logarithm of the Kd (pKd) of 9.33. As to “9C12 T256P (mouse-human chimeric, human IgG1 Fc) (antibody)”, the pKd was 9.00 and the fold increase in affinity against 9C12 WT is 10 fold. Regarding “AP422 N297A (mouse-human chimeric, human IgG1 Fc region) (antibody)”, the negative-log Kd (pKd) is 7.85.

“AP422 N297A T256P (mouse-human chimeric, human IgG1 Fc region) (antibody)” showed a negative-log Kd (pKd) of 9.05. This pKd is 1.20 log units higher than that of the substance before.

In turn, “AP422 NALALA (N297A, L234A, L235A; mouse-human chimeric, human IgG1 Fc region) (antibody)” gave a pKd of 7.54. Against the preceding substance, the pKd is 1.51 log units lower. Regarding “AP422 NALALA T256P (mouse-human chimeric, human IgG1 Fc region) (antibody)”, the negative logarithm of the Kd (pKd) was 10.00. The substance “AP422 T256P (mouse-human chimeric, human IgG1 Fc region) (antibody)” gave a pKd of 9.15.

For the origin of these results see US20250101089A1.
